Assay results published in patent US6187552A, “Method for identifying inhibitors of JAK2/cytokine receptor binding” (Pharmacia & Upjohn Company, priority 1998, dated 2001).

Assays:
βc/JAK2 binding = test: Effect of blocking agents, detergents and DTT on the SPA (signal, background); set-up: species or system human
Procedure: (§1) Triplicate reactions were done for each data point. The buffer used in all the assays was 35 mM sodium phosphate, 150 mM NaCl, pH 8.0, 10% glycerol. Biotinylated peptides were allowed to bind to streptavidin-coated SPA beads (Amersham Life Sciences, Arlington Heights, Ill., catalog # RPNQ0006) with either less than saturating peptide or excess peptide. […] Under less than saturating conditions, beads and 40 pmole peptide were added to the assay plate well and incubated for one hour with gentle shaking on a Titer plate shaker (Lab-Line Instruments, Inc., Melrose Park, Ill.) at 600 rpm and not washed. […] The plates were then read on a MicroBeta (Wallac) set to read scintillation due to tritium.

[1] = biological target: NJAK2 (N-terminal portion of JAK2) (Homo sapiens, UniProt O60674); test: SPA: binding of 3H-NJAK2 (N-terminal JAK2) to βc peptides on streptavidin-coated beads; conditions: less than saturating peptide, 40 pmole per reaction, FIG. 12B
Procedure: (§2) Three different labeling reactions were done using ^3 H-N-succinimidyl propionate (^3 H-NSP, Amersham Life Sciences, Arlington Heights, Ill.). One reaction was done using 0.5 mg of purified JAK2 in 0.1 M borate buffer, pH 8.5, with a reaction volume of 150 μl and an incubation time of one hour on ice with dried 1 mCi of ^3 H-NSP (toluene was removed using a stream of nitrogen). […] Another reaction was done using the buffer 0.1 M sodium phosphate, pH 8.0, and a similar volume as before. One milligram of JAK2 in 1.2 ml of phosphate buffer was incubated for three hours on ice. […] A third reaction was done using 2.5 mg of purified JAK2 in 0.1 m sodium phosphate, pH 8.0, and 2.5 ml volume. It was incubated with 5 mCi of dried ^3 H-NSP on ice for 2 hours. […] All three products were separated from unincorporated label using PD-10 columns (Pharmacia Biotech, Uppsala, Sweden) pre-equilibrated with 20 mM Tris, pH 8.0, 0.15 M NaCl.
as §1
(§3) Either ^3 H-JAK2 or ^3 H-NJAK2 was added to the wells and, after incubation, the signals measured. […] A competition reaction was also done by adding 5 to 10-fold excess unlabeled JAK2 in those reactions.

JAK2 [2] = biological target: T1, JAK2 (Homo sapiens, UniProt O60674); test: SPA: binding of 3H-JAK2 to βc peptides on streptavidin-coated beads; set-up: NJAK2 = N-terminal 294 residues; conditions: for activity profile in binding 3H-JAK2 (signal): less than saturating peptide, 40 pmole per reaction, FIG. 12A; for overall signals and signal-to-noise ratios, peptide and labeled JAK2 mixed prior to adding beads / activity profile, peptide and labeled JAK2 mixed prior to adding beads: mixed one hour before beads, FIG. 13; for overall signals and signal-to-noise ratios, peptide and labeled JAK2 mixed prior to adding beads: versus peptide bound to bead first; for signal: κ-casein included throughout the assay; for activity of C-terminal deletion peptide in the SPA: excess peptide, κ-casein 1 mg/ml
Procedure: Cells were lysed by dounce homogenization (20 strokes) in 1X phosphate buffered saline (PBS), pH 7.5 at 4 C. […] For some experiments, the JAK2 protein (0.15 mg/ml), aliquoted into 7 equivalent tubes, was then subjected to ultracentrifugation in an Airfuge using an A-110 rotor at an average of 164,000×g for a period of 6 hours at ambient temperature. At zero time, and at each subsequent hour thereafter, a tube of JAK2 was removed for analyses (ELISA, SDS polyacrylamide gel electrophoresis, and Western blotting).
as §2, §1, §3

JAK2 [3] = biological target: T1, JAK2; test: ELISA binding of JAK2 to immobilized βc peptides; set-up: Y918N clone error corrected to Tyr; conditions: for binding of JAK2 (ELISA): biotinylated peptides on streptavidin plate; for binding of JAK2 (ELISA) / saturation of JAK2 binding at 0.4 μM peptide (ELISA): FIG. 24
Procedure: βc peptides corresponding to the proposed JAK2 binding domain (Table 1) were serially diluted and bound 16 hours at room temperature to streptavidin coated 96-well plates (Boehringer-Mannheim, Indianapolis, Ind.) and blocked at 37° with 1% fetal bovine serum in PBS. JAK2 protein was serially diluted on the plate and allowed to bind for 1 hour at room temperature. Plates were washed between incubations with ELISA wash (PBS with 0.04% TWEEN 20). Detection was via anti-FLAG antibody (10 μg/ml, Kodak, New Haven, Conn.) followed by anti-mouse Ig conjugated to peroxidase (1:5000 dilution, Boehringer Mannheim) and 1 mg/ml 2,2'-azinobis(3-ethylbenzthiazolinesulfonic acid) (Sigma), 0.003% H2 O2, 28 mM citric acid, 44 mM Na2 HPO4.
The ELISA assay worked best when the biotinylated βc peptides were immobilized on a streptavidin 96-well plate and the JAK2 was allowed to bind. A dual titration of βc peptides vs. JAK2 was performed (FIG. 24). Peptide 1 [SEQ ID NO:11] (FIG. 24 A) and peptide 2 [SEQ ID NO:12] […] Because 0.4 μM peptide was calculated to saturate the number of biotin binding sites in each well, it was expected that the amount of JAK2 binding should saturate at this quantity of peptide. […] (FIGS. 24 C and D) but peptides 5 and 6 [SEQ ID NOS:15 and 16]

JAK2 [4] = biological target: T1, JAK2; test: SPA competition: soluble peptide/streptavidin against peptide 4-coated SPA beads for binding 3H-JAK2; set-up: Y918N clone error corrected to Tyr
Text: FIGS. 20 A and B illustrate a test of the ability of streptavidin-peptide 4 complexes to compete for binding of 3H-JAK2 to peptide 4-coated SPA beads. For A, #0 is a beads only control. In all reactions with peptide bound to beads, excess peptide 4 [SEQ ID NO:14] was bound to beads before adding soluble samples. The reaction in #1 is peptide 4 [SEQ ID NO:14] bound to beads only, no added peptide 4 [SEQ ID NO:14] or streptavidin. #2 contained soluble peptide 4/streptavidin at a ratio of 1:1. #3 contained soluble peptide 4/streptavidin at a ratio of 4:1. #4 contained 20 μM peptide 4 added as soluble peptide 4. #5 contained 20 μM streptavidin. […] For B, 0 is a beads only control. In all reactions with peptide bound to beads, excess peptide 4 was bound to beads in the presence of 1 mg/ml κ-casein (as described in Materials and Methods of Example 8) before adding soluble samples. The reaction in #1 is peptide 4 bound to beads only, no added peptide 4 or streptavidin. #2 contained peptide 1/streptavidin at a ratio of 4:1 and #3 contained peptide 4/streptavidin at a ratio of 4:1.
The assay was set up in 96-well plates (Wallac, catalog # 1450-401), Turku, Finland, using a total assay volume of 200, μl/well. Triplicate reactions were done for each data point. The buffer used in all the assays was 35 mM sodium phosphate, 150 mM NaCl, pH 8.0, 10% glycerol. Biotinylated peptides were allowed to bind to streptavidin-coated SPA beads (Amersham Life Sciences, Arlington Heights, Ill., catalog # RPNQ0006) with either less than saturating peptide or excess peptide. For 400 μg SPA beads used per reaction, there was the capacity to bind 49 pmole of biotin (given the binding capacity of 121 pmole biotin/mg bead). Under less than saturating conditions, beads and 40 pmole peptide were added to the assay plate well and incubated for one hour with gentle shaking on a Titer plate shaker (Lab-Line Instruments, Inc., Melrose Park, Ill.) at 600 rpm and not washed. Under conditions of excess peptide, beads and peptide (80 pmole of peptide per 400 μg of bead) were mixed in batch with or without 1 mg/ml K-casein added as described in Results and Discussion, incubated for one hour with rotation, washed three times with buffer and aliquotted into wells. ^3 H-JAK2 or ^3 H-NJAK2 and any other components to be tested were added and the reactions were mixed and incubated for one hour in the dark at room temperature. The plates were then read on a MicroBeta (Wallac) set to read scintillation due to tritium.
The ability of excess peptide 4 [SEQ ID NO: 14] to compete for binding of JAK2 was tested. Biotinylated peptide 4 was bound to streptavidin in solution to mimic the conditions of the peptide 4 bound to the beads. It was used at a ratio of 1:1 (peptide 4: streptavidin) and at a ratio of 4:1 to see whether having multiple peptides on one streptavidin molecule might do a better job of binding JAK2 and therefore of competing. […] This could be due to the free streptavidin pulling some of the peptide 4 [SEQ ID NO: 14] off the bead. […] Another SPA was done using peptide 4 [SEQ ID NO:14] or peptide 1 [SEQ ID NO:11] bound to streptavidin at a ratio of 4:1. […] The results are shown in panel B of FIG. 20.

NJAK2 (N-terminal portion of JAK2), sequence (O60674 1-294 S277G): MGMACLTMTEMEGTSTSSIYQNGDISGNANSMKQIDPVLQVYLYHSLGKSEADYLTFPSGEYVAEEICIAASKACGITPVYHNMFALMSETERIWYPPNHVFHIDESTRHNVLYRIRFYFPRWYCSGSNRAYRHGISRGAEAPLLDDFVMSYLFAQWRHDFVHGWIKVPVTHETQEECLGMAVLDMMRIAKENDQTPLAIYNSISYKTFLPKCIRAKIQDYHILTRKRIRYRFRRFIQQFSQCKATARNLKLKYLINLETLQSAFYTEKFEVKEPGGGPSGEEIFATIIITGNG
T1 sequence (O60674 3-1132): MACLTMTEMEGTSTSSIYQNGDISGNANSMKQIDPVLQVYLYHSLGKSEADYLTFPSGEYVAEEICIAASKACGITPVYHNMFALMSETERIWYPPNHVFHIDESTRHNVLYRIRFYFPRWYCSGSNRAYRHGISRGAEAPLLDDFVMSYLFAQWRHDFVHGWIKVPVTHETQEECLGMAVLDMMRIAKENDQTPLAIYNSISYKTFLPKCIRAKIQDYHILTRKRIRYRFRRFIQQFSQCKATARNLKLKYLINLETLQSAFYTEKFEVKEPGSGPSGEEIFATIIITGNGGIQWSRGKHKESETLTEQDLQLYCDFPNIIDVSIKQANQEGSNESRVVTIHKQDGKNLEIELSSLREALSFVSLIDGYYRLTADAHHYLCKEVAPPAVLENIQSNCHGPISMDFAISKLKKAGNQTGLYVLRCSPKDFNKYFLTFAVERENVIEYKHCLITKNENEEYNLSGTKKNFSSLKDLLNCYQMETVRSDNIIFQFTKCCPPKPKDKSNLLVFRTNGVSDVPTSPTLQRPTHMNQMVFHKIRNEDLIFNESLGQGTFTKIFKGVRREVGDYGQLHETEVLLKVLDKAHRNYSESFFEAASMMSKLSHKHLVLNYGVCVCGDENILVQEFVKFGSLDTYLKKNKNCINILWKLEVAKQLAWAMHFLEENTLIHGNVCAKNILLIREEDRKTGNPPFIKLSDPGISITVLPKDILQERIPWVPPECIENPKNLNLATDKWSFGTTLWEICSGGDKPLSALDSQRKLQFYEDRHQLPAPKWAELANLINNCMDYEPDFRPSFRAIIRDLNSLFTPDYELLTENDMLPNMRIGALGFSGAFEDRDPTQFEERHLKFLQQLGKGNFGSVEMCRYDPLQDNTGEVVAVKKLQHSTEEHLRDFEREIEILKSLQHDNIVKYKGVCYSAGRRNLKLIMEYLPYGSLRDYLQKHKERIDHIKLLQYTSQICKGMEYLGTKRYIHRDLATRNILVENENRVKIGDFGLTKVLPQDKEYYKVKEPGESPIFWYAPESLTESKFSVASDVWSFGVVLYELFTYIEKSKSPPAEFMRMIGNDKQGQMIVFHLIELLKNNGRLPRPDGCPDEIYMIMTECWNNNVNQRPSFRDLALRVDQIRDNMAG

For O[C@H](CS)[C@H](O)CS (racemic) [dithiothreitol], the “additional effect of dithiothreitol” value (βc/JAK2 binding; 0.1 or 1 mM DTT with Brij 35 0.0025%, FIG. 19B) was “no obvious additional effect”.

For “EKIPNPSKSHLFQNGSAELWP [peptide 1, βc peptide, N-terminal truncation]”, the “activity profile in binding 3H-NJAK2 (signal)” value [1] was “gave no signal”, the “activity profile in binding 3H-JAK2 (signal)” value (JAK2 [2]) was “gave no signal” and the “overall signals and signal-to-noise ratios, peptide and labeled JAK2 mixed prior to adding beads” value (JAK2 [2]) was “lower overall signals and signal-to-noise ratios”. The “activity profile, peptide and labeled JAK2 mixed prior to adding beads” value (JAK2 [2]) was “same activity profile”, the signal (JAK2 [2]) was “very little signal” and the “binding of JAK2 (ELISA)” value (JAK2 [3]) was “no binding activity”. The “competition for binding of JAK2” value (JAK2 [4]; peptide/streptavidin 4:1, beads with 1 mg/ml κ-casein, FIG. 20B) was “decrease in signal”.

For “FCGIYGYRLRRKWEEKIPNPSKSHLFQNGSAELWP [peptide 5, βc peptide, N-terminal truncation]”, the “activity profile in binding 3H-NJAK2 (signal)” value [1] was “peptide 4>peptide 3>peptide 5>peptide 6>peptides 1 and 2”, the “activity profile in binding 3H-JAK2 (signal)” value (JAK2 [2]) was “peptide 4>peptide 3>peptide 5>peptide 6>peptides 1 and 2” and the “saturation of JAK2 binding at 0.4 μM peptide (ELISA)” value (JAK2 [3]) was “did not show saturation”.

“GIYGYRLRRKWEE [CTD-5, C-terminal deletion of peptide 4]” was tested, and the “activity of C-terminal deletion peptide in the SPA” value (JAK2 [2]; 10 nM labeled JAK2, FIG. 21B) was “as active as peptide 4”.

With “GIYGYRLRRKWEEKIPN [CTD-4, C-terminal deletion of peptide 4]” the “activity of C-terminal deletion peptide in the SPA” value (JAK2 [2]; 32.5 nM labeled JAK2, FIG. 21A) was “slight decrease in the activity”.

For “LALRFCGIYGYRLRRKWEEKIPNPSKSHLFQNGSAELWP [peptide 6, βc peptide]”, the “activity profile in binding 3H-NJAK2 (signal)” value [1] was “peptide 4>peptide 3>peptide 5>peptide 6>peptides 1 and 2”, the “activity profile in binding 3H-JAK2 (signal)” value (JAK2 [2]) was “peptide 4>peptide 3>peptide 5>peptide 6>peptides 1 and 2” and the “overall signals and signal-to-noise ratios, peptide and labeled JAK2 mixed prior to adding beads” value (JAK2 [2]) was “lower overall signals and signal-to-noise ratios”. For the same molecule, the “activity profile, peptide and labeled JAK2 mixed prior to adding beads” value (JAK2 [2]) was “same activity profile”, the signal (JAK2 [2]) was “very little signal” and the “saturation of JAK2 binding at 0.4 μM peptide (ELISA)” value (JAK2 [3]) was “did not show saturation”.

In the case of “RKWEEKIPNPSKSHLFQNGSAELWP [peptide 2, βc peptide, N-terminal truncation]”, the “activity profile in binding 3H-NJAK2 (signal)” value [1] is reported as “gave no signal”, the “activity profile in binding 3H-JAK2 (signal)” value (JAK2 [2]) is reported as “gave no signal” and the “binding of JAK2 (ELISA)” value (JAK2 [3]) is reported as “no binding activity”.

In the case of “YRLRRKWEEKIPNPSKSHLFQNGSAELWP [peptide 3, βc peptide, N-terminal truncation]”, the “activity profile in binding 3H-NJAK2 (signal)” value [1] is reported as “peptide 4>peptide 3>peptide 5>peptide 6>peptides 1 and 2”, the “suitability in the SPA” value (JAK2 [2]) is reported as “two most optimal” and the “activity profile in binding 3H-JAK2 (signal)” value (JAK2 [2]) is reported as “peptide 4>peptide 3>peptide 5>peptide 6>peptides 1 and 2”. The “suitability for the ELISA” value (JAK2 [3]) was “appear optimal”.

For bovine serum albumin [BSA], the effect on background (βc/JAK2 binding; BSA 0.1 or 0.5 mg/ml, FIG. 16) was “no effect” and the effect on signal (βc/JAK2 binding; BSA 0.1 or 0.5 mg/ml, FIG. 16) was “slight positive effect”.

In the case of streptavidin [reference compound], the “signal with streptavidin alone” value (JAK2 [4]; 20 μM streptavidin, FIG. 20A) is reported as “decreases the signal to a greater extent than streptavidin with peptide 4”.

For κ-casein, the “effect on signal and background” value (βc/JAK2 binding; κ-casein during binding of excess peptide to beads, washed away, FIG. 15) was “decreases both signal and background”.
